According to article PMC9463131, “SLITRK1-mediated noradrenergic projection suppression in the neonatal prefrontal cortex” (Communications Biology, 2022):
Numbering of substitutions follows the chain as printed.

T1: SLITRK1 ECD-immunoglobulin Fc domain-fusion protein (SLITRK1-WT-Fc) (human, UniProt Q96PX8 18-616)
T1 construct: signal peptide in the construct; human SLITRK1 extracellular domain, amino acid number 1-616 in NP_443142; also called SLITRK1 ECD-Fc; SLITRK1 ECD-Fc fusion protein
T1 sequence (looked up): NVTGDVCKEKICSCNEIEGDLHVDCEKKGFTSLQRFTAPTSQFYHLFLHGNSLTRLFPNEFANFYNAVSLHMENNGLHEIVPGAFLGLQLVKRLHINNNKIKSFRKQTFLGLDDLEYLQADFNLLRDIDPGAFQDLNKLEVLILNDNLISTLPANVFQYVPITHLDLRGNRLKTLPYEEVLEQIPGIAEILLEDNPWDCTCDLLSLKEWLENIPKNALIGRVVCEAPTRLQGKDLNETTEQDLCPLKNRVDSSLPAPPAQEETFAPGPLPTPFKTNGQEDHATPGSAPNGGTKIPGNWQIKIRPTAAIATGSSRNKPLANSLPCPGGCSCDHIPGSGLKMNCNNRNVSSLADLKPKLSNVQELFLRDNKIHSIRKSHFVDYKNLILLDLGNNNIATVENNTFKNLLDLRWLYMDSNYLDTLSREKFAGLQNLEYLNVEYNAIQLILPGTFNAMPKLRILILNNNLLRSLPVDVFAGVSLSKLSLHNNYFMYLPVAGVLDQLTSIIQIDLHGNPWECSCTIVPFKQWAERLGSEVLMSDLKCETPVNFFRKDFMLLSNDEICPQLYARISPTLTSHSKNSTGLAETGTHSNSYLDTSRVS

T2: SLITRK1-S330A-Fc (human, UniProt Q96PX8 18-616, S330A)
T2 construct: signal peptide in the construct; human SLITRK1 extracellular domain, amino acid number 1-616 in NP_443142, with the patient-derived variant S330A; S330A is a variant found in patients and controls (global MAF 0.002); made by site-directed mutagenesis; also called SLITRK1 ECD-Fc S330A
T2 sequence (looked up): T1 sequence (looked up) with S313A

T3: SLITRK1-A444S-Fc (human, UniProt Q96PX8 18-616, A444S)
T3 construct: signal peptide in the construct; human SLITRK1 extracellular domain, amino acid number 1-616 in NP_443142, with the patient-derived variant A444S; A444S was found in 2 of 364 patients with bipolar disorder; made by site-directed mutagenesis; also called SLITRK1 ECD-Fc A444S
T3 sequence (looked up): T1 sequence (looked up) with A427S

T4: SLITRK1-S330A-Fc (human, UniProt Q96PX8 18-616, S330A)
T4 sequence: T1 sequence (looked up) with S313A

T5: SLITRK1-A444S-Fc (human, UniProt Q96PX8 18-616, A444S)
T5 sequence: T1 sequence (looked up) with A427S

B1: human Neurofascin ECD-His6 (8208-NF-050, R&D Systems) (domain or fragment)
chain: IEIPMDLTQPPTITKQSAKDHIVDPRDNILIECEAKGNPAPSFHWTRNSRFFNIAKDPRVSMRRRSGTLVIDFRSGGRPEEYEGEYQCFARNKFGTALSNRIRLQVSKSPLWPKENLDPVVVQEGAPLTLQCNPPPGLPSPVIFWMSSSMEPITQDKRVSQGHNGDLYFSNVMLQDMQTDYSCNARFHFTHTIQQKNPFTLKVLTNHPYNDSSLRNHPDMYSARGVAERTPSFMYPQGTASSQMVLRGMDLLLECIASGVPTPDIAWYKKGGDLPSDKAKFENFNKALRITNVSEEDSGEYFCLASNKMGSIRHTISVRVKAAPYWLDEPKNLILAPGEDGRLVCRANGNPKPTVQWMVNGEPLQSAPPNPNREVAGDTIIFRDTQISSRAVYQCNTSNEHGYLLANAFVSVLDVPPRMLSPRNQLIRVILYNRTRLDCPFFGSPIPTLRWFKNGQGSNLDGGNYHVYENGSLEIKMIRKEDQGIYTCVATNILGKAENQVRLEVKDPTRIYRMPEDQVARRGTTVQLECRVKHDPSLKLTVSWLKDDEPLYIGNRMKKEDDSLTIFGVAERDQGSYTCVASTELDQDLAKAYLTVLGRPDRPRDLELTDLAERSVRLTWIPGDANNSPITDYVVQFEEDQFQPGVWHDHSKYPGSVNSAVLRLSPYVNYQFRVIAINEVGSSHPSLPSERYRTSGAPPESNPGDVKGEGTRKNNMEITWTPMNATSAFGPNLRYIVKWRRRETREAWNNVTVWGSRYVVGQTPVYVPYEIRVQAENDFGKGPEPESVIGYSGEDYPRAAPTEVKVRVMNSTAISLQWNRVYSDTVQGQLREYRAYYWRESSLLKNLWVSQKRQQASFPGDRLRGVVSRLFPYSNYKLEMVVVNGRGDGPRSETKEFTTPEGVPSAPRRFRVRQPNLETINLEWDHPEHPNGIMIGYTLKYVAFNGTKVGKQIVENFSPNQTKFTVQRTDPVSRYRFTLSARTQVGSGEAVTEESPAPPNEAYTNNQADIATQGW
B2: L1CAM ECD-His6 (777-NC-100, R&D Systems) (domain or fragment)
chain: IQIPEEYEGHHVMEPPVITEQSPRRLVVFPTDDISLKCEASGKPEVQFRWTRDGVHFKPKEELGVTVYQSPHSGSFTITGNNSNFAQRFQGIYRCFASNKLGTAMSHEIRLMAEGAPKWPKETVKPVEVEEGESVVLPCNPPPSAEPLRIYWMNSKILHIKQDERVTMGQNGNLYFANVLTSDNHSDYICHAHFPGTRTIIQKEPIDLRVKATNSMIDRKPRLLFPTNSSSHLVALQGQPLVLECIAEGFPTPTIKWLRPSGPMPADRVTYQNHNKTLQLLKVGEEDDGEYRCLAENSLGSARHAYYVTVEAAPYWLHKPQSHLYGPGETARLDCQVQGRPQPEVTWRINGIPVEELAKDQKYRIQRGALILSNVQPSDTMVTQCEARNRHGLLLANAYIYVVQLPAKILTADNQTYMAVQGSTAYLLCKAFGAPVPSVQWLDEDGTTVLQDERFFPYANGTLGIRDLQANDTGRYFCLAANDQNNVTIMANLKVKDATQITQGPRSTIEKKGSRVTFTCQASFDPSLQPSITWRGDGRDLQELGDSDKYFIEDGRLVIHSLDYSDQGNYSCVASTELDVVESRAQLLVVGSPGPVPRLVLSDLHLLTQSQVRVSWSPAEDHNAPIEKYDIEFEDKEMAPEKWYSLGKVPGNQTSTTLKLSPYVHYTFRVTAINKYGPGEPSPVSETVVTPEAAPEKNPVDVKGEGNETTNMVITWKPLRWMDWNAPQVQYRVQWRPQGTRGPWQEQIVSDPFLVVSNTSTFVPYEIKVQAVNSQGKGPEPQVTIGYSGEDYPQAIPELEGIEILNSSAVLVKWRPVDLAQVKGHLRGYNVTYWREGSQRKHSKRHIHKDHVVVPANTTSVILSGLRPYSSYHLEVQAFNGRGSGPASEFTFSTPEGVPGHPEALHLECQSNTSLLLRWQPPLSHNGVLTGYVLSYHPLDEGGKGQLSFNLRDPELRTHNLTDLSPHLRYRFQLQATTKEGPGEAIVREGGTMALSGISDFGNISATAGENYSVVSWVPKEGQCNFRFHILFKALGEEKGGASLSPQYVSYNQSSYTQWDLQPDTDYEIHLFKERMFRHQMAVKTNGTGRVRLPPAGFATE

Columns and labels:
[1] = molecular target: T1, SLITRK1 ECD-immunoglobulin Fc …; test: quartz crystal microbalance; AffinixQ, 27 MHz; about 200 femtomoles SLITRK1 ECD-Fc (WT, S330A or A444S) immobilised through anti-human IgG Fc on the gold resonator; ECD-His6 proteins added at several concentrations; 50 mM Tris-HCl pH 7.6, 15 mM NaCl, 140 mM KCl, 0.5 mM MgCl2, 2 mM CaCl2; 25 ± 1 °C; KD = koff/kon; settings: both partners purified
[2] = molecular target: T2, SLITRK1-S330A-Fc; test: as above; settings: both partners purified
[3] = molecular target: T3, SLITRK1-A444S-Fc; test: as above; settings: both partners purified
[4] = molecular target: T4, SLITRK1-S330A-Fc; test: BLI
[5] = molecular target: T5, SLITRK1-A444S-Fc; test: BLI
[6] = molecular target: T4, SLITRK1-S330A-Fc; test: BLI; remark: listed apart in the source
[7] = molecular target: T5, SLITRK1-A444S-Fc; test: BLI; remark: listed apart in the source

| Binder | Kd [1] | Kd [2] | Kd [3] | koff [4] | koff [5] | Kd [6] | Kd [7] |
| --- | --- | --- | --- | --- | --- | --- | --- |
| B1 | 16.6 nM | 59.3 nM | 14.2 nM | 0.00665 s⁻¹ | 0.00577 s⁻¹ |  |  |
| B2 |  |  |  | 0.00084 s⁻¹ | 0.0008 s⁻¹ | 5.83 nM | 4.69 nM |
